# Patent publication US20240352105A1, “COMPOSITIONS AND METHODS FOR NEUTRALIZING ANTIGENS” (PACAGEN, INC, priority 2023, published 2024)
# Where “and” joins values, the source holds several entries; their conditions need not be identical. Identical values can stand only once. No end group written: not given here.
# T1: recombinant His-tagged Der p1 (dust mite, UniProt P08176 99-320, limits assumed)
# T1 construct: Recombinant His-tagged protein made by the applicant; also called Der p1-His; Der pl; not shown: His tag
# T1 sequence (looked up): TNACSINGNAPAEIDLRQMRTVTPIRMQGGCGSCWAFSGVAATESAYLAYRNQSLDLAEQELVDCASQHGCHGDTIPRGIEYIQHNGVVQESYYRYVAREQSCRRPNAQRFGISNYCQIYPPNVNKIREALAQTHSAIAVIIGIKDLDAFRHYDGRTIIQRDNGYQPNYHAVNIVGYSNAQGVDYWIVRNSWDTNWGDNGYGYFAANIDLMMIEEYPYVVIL
# T2: recombinant Fel d1-His (Felis catus, UniProt P30438+P30440)
# T2 construct: His; made in house
# T2 sequence (P30438 23-92): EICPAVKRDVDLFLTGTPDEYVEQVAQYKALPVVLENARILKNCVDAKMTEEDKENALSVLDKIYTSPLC
# T2 sequence (P30440 18-109): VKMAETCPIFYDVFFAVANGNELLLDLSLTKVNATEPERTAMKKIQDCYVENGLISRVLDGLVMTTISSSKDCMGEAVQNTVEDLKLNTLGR
# Columns and labels:
# [1] = molecular target: T1, recombinant His-tagged Der p1; assay: ELISA, Der p1 on plate, biotinylated peptide at 0.123, duplicate 2
# Procedure: (§1) An ELISA was used to validate identified peptides. Der p1 was bound to the bottom of a plate. Different concentrations of the chosen (biotinylated) peptides were added and then washed. Then, HRP-streptavidin (which binds to the biotin) was added and an OD at 450 nm is measured. Duplicate measurements are separated by commas.
# [2] = molecular target: T1, recombinant His-tagged Der p1; assay: ELISA, Der p1 on plate, biotinylated peptide at 30, duplicate 1
# Procedure: as §1
# [3] = molecular target: T1, recombinant His-tagged Der p1; assay: ELISA, Der p1 on plate, biotinylated peptide at 1.111, duplicate 1
# Procedure: as §1
# [4] = molecular target: T1, recombinant His-tagged Der p1; assay: ELISA, Der p1 on plate, biotinylated peptide at 1.111, duplicate 2
# Procedure: as §1
# [5] = molecular target: T1, recombinant His-tagged Der p1; assay: ELISA, Der p1 on plate, biotinylated peptide at 0.041, duplicate 2
# Procedure: as §1
# [6] = molecular target: T1, recombinant His-tagged Der p1; assay: ELISA, Der p1 on plate, biotinylated peptide at 0.123, duplicate 1
# Procedure: as §1
# [7] = molecular target: T1, recombinant His-tagged Der p1; assay: ELISA, Der p1 on plate, biotinylated peptide at 10, duplicate 1
# Procedure: as §1
# [8] = molecular target: T1, recombinant His-tagged Der p1; assay: ELISA, Der p1 on plate, biotinylated peptide at 10, duplicate 2
# Procedure: as §1
# [9] = molecular target: T1, recombinant His-tagged Der p1; assay: ELISA, Der p1 on plate, biotinylated peptide at 0.370, duplicate 1
# Procedure: as §1
# [10] = molecular target: T1, recombinant His-tagged Der p1; assay: ELISA, Der p1 on plate, biotinylated peptide at 0.041, duplicate 1
# Procedure: as §1
# [11] = molecular target: T1, recombinant His-tagged Der p1; assay: ELISA, Der p1 on plate, biotinylated peptide at 3.333, duplicate 1
# Procedure: as §1
# [12] = molecular target: T1, recombinant His-tagged Der p1; assay: ELISA, Der p1 on plate, biotinylated peptide at 30, duplicate 2
# Procedure: as §1
# [13] = molecular target: T1, recombinant His-tagged Der p1; assay: ELISA, Der p1 on plate, biotinylated peptide at 0.370, duplicate 2
# Procedure: as §1
# [14] = molecular target: T1, recombinant His-tagged Der p1; assay: ELISA, Der p1 on plate, biotinylated peptide at 3.333, duplicate 2
# Procedure: as §1
# [15] = test system: known Der p1 antibody (clone 10B9); assay: Recombinant Der p1-His ELISA binding assay
# Procedure: In order to obtain single variable domain on heavy chain, i.e., VHH, specific for dust mite allergen Der p1, a recombinant His-tagged Der p1 was prepared, which reached high purity, as shown via SDS-Page Western blotting in FIG. 8. To confirm this, an ELISA was performed measuring optical density when the recombinant Der p1-His is incubated with a known Der p1 antibody (clone 10B9). As summarized in Table 11, the recombinant Der p1-His was effectively bound by the antibody.
# [16] = molecular target: T2, recombinant Fel d1-His; assay: Recombinant Fel D1 His binding assay with positive control antibodies; parameters: species or system cat
# Procedure: In order to obtain single variable domain on heavy chain, i.e., VHH, specific for cat allergen Fel D1, a recombinant His-tagged Fel D1 was prepared, which reached high purity, as shown via SDS-Page Western blotting in FIG. 14. To confirm this, an ELISA was performed measuring optical density when the recombinant Fel d1-His is incubated with two known Fel D1 antibodies which are summarized in Table 18. As summarized in Table 19, the recombinant Fel d1-His was effectively bound by both antibodies.
# [17] = Volume of Fel D1-His 10 μL (concentration ~1 μg/μL)
# [18] = Volume of Fel D1-His 50 μL (concentration ~1 μg/μL)
# [19] = Volume of Fel D1-His 100 μL (concentration ~1 μg/μL)
molecule,measurement,setting,value
"GIHMALM (also: biotinylated, site not given here, 7-amino acid peptide from a phage display library) [SDAB22110-2-B2]",OD450,[1],0.066 OD450
same,OD450,[2],0.536 OD450
same,OD450,[3],0.089 OD450
same,OD450,[4],0.089 OD450
same,OD450,[5],0.061 OD450
same,OD450,[6],0.078 OD450
same,OD450,[7],0.275 OD450
same,OD450,[8],0.289 OD450
same,OD450,[9],0.083 OD450
same,OD450,[10],0.07 OD450
same,OD450,[11],0.132 OD450
same,OD450,[12],0.537 OD450
same,OD450,[13],0.071 OD450
same,OD450,[14],0.136 OD450
"VVAFGIS (also: biotinylated, site not given here, 7-amino acid peptide from a phage display library) [SDAB22110-2-G1]",OD450,[1],0.073 OD450
same,OD450,[2],0.666 OD450
same,OD450,[3],0.102 OD450
same,OD450,[4],0.109 OD450
same,OD450,[5],0.062 OD450
same,OD450,[6],0.082 OD450
same,OD450,[7],0.323 OD450
same,OD450,[8],0.293 OD450
same,OD450,[9],0.088 OD450
same,OD450,[10],0.057 OD450
same,OD450,[11],0.147 OD450
same,OD450,[12],0.629 OD450
same,OD450,[13],0.082 OD450
same,OD450,[14],0.145 OD450
"YPTWAYR (also: biotinylated, site not given here, 7-amino acid peptide from a phage display library) [SDAB22110-2-C3]",OD450,[1],0.065 OD450
same,OD450,[2],0.684 OD450
same,OD450,[3],0.104 OD450
same,OD450,[4],0.102 OD450
same,OD450,[5],0.057 OD450
same,OD450,[6],0.065 OD450
same,OD450,[7],0.346 OD450
same,OD450,[8],0.376 OD450
same,OD450,[9],0.072 OD450
same,OD450,[10],0.058 OD450
same,OD450,[11],0.162 OD450
same,OD450,[12],0.748 OD450
same,OD450,[13],0.066 OD450
same,OD450,[14],0.191 OD450
"AVVSFYP (also: biotinylated, site not given here, 7-amino acid peptide from a phage display library) [SDAB22110-2-F1]",OD450,[1],0.075 OD450
same,OD450,[2],0.938 OD450
same,OD450,[3],0.131 OD450
same,OD450,[4],0.125 OD450
same,OD450,[5],0.066 OD450
same,OD450,[6],0.073 OD450
same,OD450,[7],0.479 OD450
same,OD450,[8],0.516 OD450
same,OD450,[9],0.076 OD450
same,OD450,[10],0.079 OD450
same,OD450,[11],0.221 OD450
same,OD450,[12],0.805 OD450
same,OD450,[13],0.073 OD450
same,OD450,[14],0.209 OD450
"LTGYGMS (also: biotinylated, site not given here, 7-amino acid peptide from a phage display library) [SDAB22110-2-D9]",OD450,[1],0.068 OD450
same,OD450,[2],0.751 OD450
same,OD450,[3],0.095 OD450
same,OD450,[4],0.102 OD450
same,OD450,[5],0.059 OD450
same,OD450,[6],0.067 OD450
same,OD450,[7],0.374 OD450
same,OD450,[8],0.357 OD450
same,OD450,[9],0.068 OD450
same,OD450,[10],0.061 OD450
same,OD450,[11],0.154 OD450
same,OD450,[12],0.771 OD450
same,OD450,[13],0.078 OD450
same,OD450,[14],0.154 OD450
"Der p1-His: recombinant His-tagged dust mite allergen Der p1 (protein, left off: small tags and cut ends) TNACSINGNAPAEIDLRQMRTVTPIRMQGGCGSCWAFSGVAATESAYLAYRNQSLDLAEQELVDCASQHGCHGDTIPRGIEYIQHNGVVQESYYRYVAREQSCRRPNAQRFGISNYCQIYPPNVNKIREALAQTHSAIAVIIGIKDLDAFRHYDGRTIIQRDNGYQPNYHAVNIVGYSNAQGVDYWIVRNSWDTNWGDNGYGYFAANIDLMMIEEYPYVVIL",OD at 450 nm,[15]; Der p1-His Concentration 0.00064 μg/mL,0.13 and 0.12
same,OD at 450 nm,[15]; Der p1-His Concentration 0.016 μg/mL,0.20 and 0.17
same,OD at 450 nm,[15]; Der p1-His Concentration 0.08 μg/mL,0.58 and 0.49
same,OD at 450 nm,[15]; Der p1-His Concentration 0.4 μg/mL,1.80 and 1.87
same,OD at 450 nm,[15]; Der p1-His Concentration 2 μg/mL,4.03 and 4.31
same,OD at 450 nm,[15]; Der p1-His Concentration 10 μg/mL,4.37 and 4.40
"370VH + 378VL: known Fel D1 positive control antibody, heavy chain SEQ ID NO: 64, light chain SEQ ID NO: 65 (antibody, V domains shown) VH: EVQLVESGGGLAQPGGSLRLSCAASGFTFNNYAMTWVRQAPGKGLDWVSAISDSGRSTFSADSVKGRFTISRDNSKNTLYLQMDSLRAEDTALYYCAKHRNWNYPVFDYWGQGTLVTVSS VL: DIQLTQSPSFLSASVGDRVTITCWASQGISSYLAWYQQKPGKAPKLLIYSASTLQSGVPSRFSGSGSGTEFTLTISSLQPEDFATYYCQQLNSYPFTFGPGTKVDIK",OD450 Using Positive Control,[16]; [17],4.47 and 4.44
same,OD450 Using Positive Control,[16]; [18],4.55 and 4.53
same,OD450 Using Positive Control,[16]; [19],4.60
"18VH + 378VL: known Fel D1 positive control antibody, heavy chain SEQ ID NO: 66, light chain SEQ ID NO: 65 (antibody, V domains shown) VH: EVQLVESGGGLVKPGGSLRLSCAASGFTFRNYNINWVRQAPGKGLEWVSLISGSSSYIYYADSVKGRFTVSRDNAKNSLYLQMNSLRAEDTAVYYCARRTLSYYVMDVWGQGTTVTVSS VL: DIQLTQSPSFLSASVGDRVTITCWASQGISSYLAWYQQKPGKAPKLLIYSASTLQSGVPSRFSGSGSGTEFTLTISSLQPEDFATYYCQQLNSYPFTFGPGTKVDIK",OD450 Using Positive Control,[16]; [17],4.47 and 4.44
same,OD450 Using Positive Control,[16]; [18],4.55 and 4.53
same,OD450 Using Positive Control,[16]; [19],4.60
"HSGPECG (also: biotinylated, site not given here, 7-amino acid peptide from a phage display library) [SDAB22110-2-D3]",OD450,[1],0.906 OD450
same,OD450,[2],4.1 OD450
same,OD450,[3],2.16 OD450
same,OD450,[4],2.25 OD450
same,OD450,[5],0.463 OD450
same,OD450,[6],0.866 OD450
same,OD450,[7],3.55 OD450
same,OD450,[8],3.57 OD450
same,OD450,[9],1.37 OD450
same,OD450,[10],0.468 OD450
same,OD450,[11],2.77 OD450
same,OD450,[12],4.13 OD450
same,OD450,[13],1.36 OD450
same,OD450,[14],2.88 OD450
